Ends that are not written are not given here.
Molecular target: T1, CD13 (aminopeptidase N) as expressed on THP-1 cells (human acute monocytic leukemia) (human, UniProt P15144 2-967)
T1 construct: whole, on cells; The CD13 form on THP-1 is recognised by WM15 but not by the NGR liposomes
Experiment: FACS of doxorubicin fluorescence, THP-1 cells 1 h at 4 C

T1 sequence (P15144 2-967): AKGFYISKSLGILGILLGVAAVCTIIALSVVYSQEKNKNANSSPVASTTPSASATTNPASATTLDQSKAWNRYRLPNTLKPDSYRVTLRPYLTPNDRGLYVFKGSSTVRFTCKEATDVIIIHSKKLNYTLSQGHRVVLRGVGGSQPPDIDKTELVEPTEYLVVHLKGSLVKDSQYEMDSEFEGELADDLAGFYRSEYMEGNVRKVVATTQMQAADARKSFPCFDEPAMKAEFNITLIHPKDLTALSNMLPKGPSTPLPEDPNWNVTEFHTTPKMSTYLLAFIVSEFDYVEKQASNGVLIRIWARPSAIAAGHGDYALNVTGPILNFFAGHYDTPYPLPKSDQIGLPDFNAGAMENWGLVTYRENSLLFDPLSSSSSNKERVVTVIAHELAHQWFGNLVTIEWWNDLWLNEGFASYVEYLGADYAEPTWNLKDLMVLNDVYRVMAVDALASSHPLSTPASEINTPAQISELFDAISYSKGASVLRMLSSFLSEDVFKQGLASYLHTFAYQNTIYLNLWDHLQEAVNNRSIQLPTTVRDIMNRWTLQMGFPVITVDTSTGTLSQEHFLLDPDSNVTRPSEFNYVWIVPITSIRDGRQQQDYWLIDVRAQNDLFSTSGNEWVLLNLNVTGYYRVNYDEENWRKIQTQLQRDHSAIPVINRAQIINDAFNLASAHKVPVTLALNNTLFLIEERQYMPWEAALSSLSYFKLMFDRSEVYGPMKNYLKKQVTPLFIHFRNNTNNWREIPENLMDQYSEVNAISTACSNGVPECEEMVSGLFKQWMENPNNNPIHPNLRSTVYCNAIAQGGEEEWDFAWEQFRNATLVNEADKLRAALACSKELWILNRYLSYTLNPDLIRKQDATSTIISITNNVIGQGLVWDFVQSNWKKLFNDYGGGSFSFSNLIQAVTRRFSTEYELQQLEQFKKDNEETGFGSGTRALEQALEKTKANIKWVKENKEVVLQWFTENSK

B1: ARA-targeted (sham-targeted) sterically stabilized liposomal doxorubicin (ARA-SL[DXR]): control peptide GARAGGVRSSSRTPSDKYC coupled to the liposome surface (peptide)
peptide: GARAGGVRSSSRTPSDKYC(PEG2000‑DSPE‑MAL (liposome))
modifications: not fully specified; also: on surface of doxorubicin-loaded sterically stabilized liposome
notes: Control formulation; Same liposome as NGR-SL[DXR], with NGR replaced by ARA in the peptide; also called mismatched peptide ARA
  binding result: no binding
